For the assay, the target named is human LTβR on A375 cells (human) (UniProt P36941). The experiment in a line: cell-based or functional assay.
Chain of human LTβR on A375 cells (human) (P36941 31-435): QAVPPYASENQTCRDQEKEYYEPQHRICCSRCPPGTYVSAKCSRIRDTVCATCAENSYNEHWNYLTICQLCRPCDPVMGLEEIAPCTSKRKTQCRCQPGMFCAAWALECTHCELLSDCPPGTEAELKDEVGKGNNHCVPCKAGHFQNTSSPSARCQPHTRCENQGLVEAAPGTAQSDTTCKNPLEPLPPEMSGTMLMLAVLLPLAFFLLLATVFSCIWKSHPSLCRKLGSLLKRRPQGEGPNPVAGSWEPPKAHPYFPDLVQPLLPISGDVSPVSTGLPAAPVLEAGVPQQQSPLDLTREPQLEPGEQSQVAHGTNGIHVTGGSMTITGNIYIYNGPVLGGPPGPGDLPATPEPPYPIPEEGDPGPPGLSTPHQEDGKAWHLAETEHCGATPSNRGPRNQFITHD

Substance “recombinant human LIGHT (R&D systems) (from UniProt O43557 74-240) (ligand)” showed an IL-8 secretion of A375 cells, EC50 (FIG. 15a) of 0.226 nM and an IL-8 secretion of A375 cells, EC50 (FIG. 15b) of 0.19 nM.
